Experimental data from patent US11623960 (dated 2023).

T1: VEGFR2 (KDR) IgD6-7 (human, UniProt P35968)
T1 chain: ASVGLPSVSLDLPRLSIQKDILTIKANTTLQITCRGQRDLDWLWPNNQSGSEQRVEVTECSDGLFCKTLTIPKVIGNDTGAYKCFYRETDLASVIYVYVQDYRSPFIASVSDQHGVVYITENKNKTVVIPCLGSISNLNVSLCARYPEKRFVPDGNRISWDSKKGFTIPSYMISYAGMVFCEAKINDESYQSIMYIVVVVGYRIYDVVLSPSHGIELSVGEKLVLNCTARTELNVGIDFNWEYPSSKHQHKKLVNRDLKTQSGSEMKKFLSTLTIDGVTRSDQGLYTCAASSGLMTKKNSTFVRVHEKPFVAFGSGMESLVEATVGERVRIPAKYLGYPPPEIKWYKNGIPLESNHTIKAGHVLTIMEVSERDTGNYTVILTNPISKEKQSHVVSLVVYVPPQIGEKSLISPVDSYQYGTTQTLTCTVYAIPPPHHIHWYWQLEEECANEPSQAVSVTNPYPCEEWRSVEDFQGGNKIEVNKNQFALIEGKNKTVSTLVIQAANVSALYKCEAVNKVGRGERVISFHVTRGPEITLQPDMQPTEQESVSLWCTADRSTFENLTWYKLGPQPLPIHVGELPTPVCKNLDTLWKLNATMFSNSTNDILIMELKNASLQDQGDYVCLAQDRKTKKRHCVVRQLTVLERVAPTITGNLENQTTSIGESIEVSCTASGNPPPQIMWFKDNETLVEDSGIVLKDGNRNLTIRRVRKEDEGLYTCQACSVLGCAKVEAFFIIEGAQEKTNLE

T2: VEGFR2 (KDR) IgD4-7 (human, UniProt P35968)
T2 chain: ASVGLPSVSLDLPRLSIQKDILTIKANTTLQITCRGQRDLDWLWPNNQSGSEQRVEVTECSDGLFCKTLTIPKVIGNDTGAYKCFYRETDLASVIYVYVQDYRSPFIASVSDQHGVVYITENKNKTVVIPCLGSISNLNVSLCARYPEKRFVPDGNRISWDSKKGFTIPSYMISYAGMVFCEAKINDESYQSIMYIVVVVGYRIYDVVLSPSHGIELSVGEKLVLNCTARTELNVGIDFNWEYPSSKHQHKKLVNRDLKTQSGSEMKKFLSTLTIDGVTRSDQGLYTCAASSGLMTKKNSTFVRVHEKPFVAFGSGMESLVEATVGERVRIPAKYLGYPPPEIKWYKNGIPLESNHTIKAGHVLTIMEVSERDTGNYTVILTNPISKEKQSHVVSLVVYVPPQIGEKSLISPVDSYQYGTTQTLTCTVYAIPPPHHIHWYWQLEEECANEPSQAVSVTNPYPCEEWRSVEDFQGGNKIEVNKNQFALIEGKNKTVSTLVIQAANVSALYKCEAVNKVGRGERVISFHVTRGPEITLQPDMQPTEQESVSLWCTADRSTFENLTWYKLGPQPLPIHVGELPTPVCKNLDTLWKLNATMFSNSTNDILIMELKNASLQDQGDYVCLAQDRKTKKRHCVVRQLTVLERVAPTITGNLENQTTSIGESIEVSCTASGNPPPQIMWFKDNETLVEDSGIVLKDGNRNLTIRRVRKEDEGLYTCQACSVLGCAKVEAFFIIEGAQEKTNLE

T3: VEGFR3 (Flt-4) IgD4-7 (human, UniProt P35916)
T3 chain: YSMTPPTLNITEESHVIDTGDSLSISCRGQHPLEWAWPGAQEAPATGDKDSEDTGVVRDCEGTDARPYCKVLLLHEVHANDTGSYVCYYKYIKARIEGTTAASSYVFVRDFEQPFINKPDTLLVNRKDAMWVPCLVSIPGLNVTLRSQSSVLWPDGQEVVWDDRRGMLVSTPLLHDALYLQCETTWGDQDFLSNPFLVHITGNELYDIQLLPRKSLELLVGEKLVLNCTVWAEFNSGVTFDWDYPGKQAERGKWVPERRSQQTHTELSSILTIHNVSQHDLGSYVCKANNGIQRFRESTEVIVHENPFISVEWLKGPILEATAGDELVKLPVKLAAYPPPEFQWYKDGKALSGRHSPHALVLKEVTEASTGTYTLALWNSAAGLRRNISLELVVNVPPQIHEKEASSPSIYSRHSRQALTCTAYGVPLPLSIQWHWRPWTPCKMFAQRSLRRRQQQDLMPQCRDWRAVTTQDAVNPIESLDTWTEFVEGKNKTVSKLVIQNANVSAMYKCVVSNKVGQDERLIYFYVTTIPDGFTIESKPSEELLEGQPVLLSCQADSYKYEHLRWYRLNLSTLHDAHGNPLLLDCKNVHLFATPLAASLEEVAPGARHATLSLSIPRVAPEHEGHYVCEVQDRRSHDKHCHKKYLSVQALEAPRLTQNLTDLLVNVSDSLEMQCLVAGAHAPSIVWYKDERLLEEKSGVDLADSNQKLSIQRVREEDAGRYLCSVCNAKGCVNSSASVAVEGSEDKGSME

T4: VEGFR3 (Flt-4) IgD6-7 (human, UniProt P35916)
T4 chain: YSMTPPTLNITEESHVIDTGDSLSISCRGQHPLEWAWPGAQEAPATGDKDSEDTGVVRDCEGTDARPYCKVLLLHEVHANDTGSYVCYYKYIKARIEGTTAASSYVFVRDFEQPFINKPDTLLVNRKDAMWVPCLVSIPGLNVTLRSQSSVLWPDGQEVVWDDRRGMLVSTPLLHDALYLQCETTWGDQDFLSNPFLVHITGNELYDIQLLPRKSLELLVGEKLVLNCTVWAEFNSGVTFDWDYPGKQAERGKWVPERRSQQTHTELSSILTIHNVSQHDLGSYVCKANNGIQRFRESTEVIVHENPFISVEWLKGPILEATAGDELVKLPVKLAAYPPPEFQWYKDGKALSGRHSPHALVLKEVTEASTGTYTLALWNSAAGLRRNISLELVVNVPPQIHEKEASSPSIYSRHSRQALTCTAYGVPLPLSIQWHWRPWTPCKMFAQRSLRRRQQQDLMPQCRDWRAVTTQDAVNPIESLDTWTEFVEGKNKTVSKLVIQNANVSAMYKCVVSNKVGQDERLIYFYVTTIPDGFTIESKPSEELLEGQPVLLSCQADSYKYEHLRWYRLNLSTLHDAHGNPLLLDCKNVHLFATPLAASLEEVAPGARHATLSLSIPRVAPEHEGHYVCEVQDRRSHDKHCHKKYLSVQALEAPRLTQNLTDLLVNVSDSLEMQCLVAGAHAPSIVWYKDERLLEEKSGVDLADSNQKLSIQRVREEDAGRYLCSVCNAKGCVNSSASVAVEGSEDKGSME


How the values were obtained:
Assay in all cases: SPR
VEGFR2 (KDR) IgD6-7 = target: T1, VEGFR2 (KDR) IgD6-7
VEGFR2 (KDR) IgD4-7 = target: T2, VEGFR2 (KDR) IgD4-7
VEGFR3 (Flt-4) IgD4-7 = target: T3, VEGFR3 (Flt-4) IgD4-7
VEGFR3 (Flt-4) IgD6-7 = target: T4, VEGFR3 (Flt-4) IgD6-7

Row | Kd (VEGFR2 (KDR) IgD6-7) | Kd (VEGFR2 (KDR) IgD4-7) | Kd (VEGFR3 (Flt-4) IgD4-7) | Kd (VEGFR3 (Flt-4) IgD6-7) | Binder
1 | 1.5 nM | 0.46 nM | 1.1 nM | 4.8 nM | R2C9-11 (antibody, V domains shown) VH: QVQLQQPGAELVKPGASVKLSCKASGYTFTSYWMHWVKQRPGQGLEWIGEINPSNGRTNYNEKFKSKATLTVDKSSSTAYMQLSSLTSEDSAVYYCANLYFDVWGAGTTVTVSS VL: DIVMTQSPSSLSVSAGEKVTMSCKSSQNLLNSGNQKYYLAWYQQKPGQPPKLLIYGASIRESGVPDRFIGSGSGTDFTLTISSVQAEDLAVYFCQSDHSYPYTFGGGTKLEIK
2 | 1.13 nM | 2.18 nM | 3.3 nM | 13 nM | R2C7-1 (antibody, V domains shown) VH: EVQLQQSGPELVKPGASVKISCKASGYSFTDYFINWVIQRHGKSLEWVGRINPYNGGSFYNQKFKDKATLTVDKSSNIAHMELRSLASEDSAIYYCARSGGNGYDYWGQGTTLTVSS VL: DIVMTQAAPSVPVIPGESVSISCRSSKSLLHSNGNTYLYWFLQRPGQSPQLLIYRMSNLASGVPDRFSGSGSGTAFTLRISRVEAEDVGVYYCMQHLEYPYTFGGGTKVEIK
